Source: IntAct's records for PubMed 25910212

B1: Lipopolysaccharide-induced tumor necrosis factor-alpha factor (Homo sapiens), Q99732 (parent)
chain: MSVPGPYQAATGPSSAPSAPPSYEETVAVNSYYPTPPAPMPGPTTGLVTGPDGKGMNPPSYYTQPAPIPNNNPITVQTVYVQHPITFLDRPIQMCCPSCNKMIVSQLSYNAGALTWLSCGSLCLLGCIAGCCFIPFCVDALQDVDHYCPNCRALLGTYKRL
B2: Elongation factor Ts, mitochondrial (Homo sapiens), P43897-2 (parent)
chain: MSLLRSLRVFLVARTGSYPAGSLLRQSPQPRHTFYAGPRLSASASSKELLMKLRRKTGYSFVNCKKALETCGGDLKQAEIWLHKEAQKEGWSKAAKLQGRKTKEGLIGLLQEGNTTVLVEVNCETDFVSRNLKFQLLVQQVALGTMMHCQTLKDQPSAYSKVQWLTPVNLALWEAEAGGSLEGFLNSSELSGLPAGPDREGSLKDQLALAIGKLGENMILKRAAWVKVPSGFYVGSYVHGAMQSPSLHKLVLGKYGALVICETSEQKTNLEDVGRRLGQHVVGMAPLSVGSLDDEPGGEAETKMLSQPYLLDPSITLGQYVQPQGVSVVDFVRFECGEGEEAAETE
partner: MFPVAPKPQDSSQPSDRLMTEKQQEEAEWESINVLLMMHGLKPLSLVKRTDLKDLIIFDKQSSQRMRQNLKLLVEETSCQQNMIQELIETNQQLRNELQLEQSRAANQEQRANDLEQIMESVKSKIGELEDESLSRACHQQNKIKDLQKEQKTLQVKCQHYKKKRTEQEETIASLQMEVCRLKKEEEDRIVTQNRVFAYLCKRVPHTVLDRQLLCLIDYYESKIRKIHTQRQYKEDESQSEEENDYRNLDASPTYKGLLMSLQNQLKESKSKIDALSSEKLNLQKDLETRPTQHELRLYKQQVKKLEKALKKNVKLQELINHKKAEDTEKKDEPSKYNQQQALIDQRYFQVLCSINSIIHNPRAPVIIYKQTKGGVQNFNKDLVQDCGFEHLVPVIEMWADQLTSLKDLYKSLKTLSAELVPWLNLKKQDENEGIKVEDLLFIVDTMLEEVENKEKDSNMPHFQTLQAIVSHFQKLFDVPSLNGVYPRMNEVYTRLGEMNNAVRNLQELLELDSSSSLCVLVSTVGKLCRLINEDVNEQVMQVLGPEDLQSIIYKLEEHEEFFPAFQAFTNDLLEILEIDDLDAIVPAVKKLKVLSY
B3: E3 ubiquitin-protein ligase Midline-1 (Homo sapiens), O15344 (parent)
chain: METLESELTCPICLELFEDPLLLPCAHSLCFNCAHRILVSHCATNESVESITAFQCPTCRHVITLSQRGLDGLKRNVTLQNIIDRFQKASVSGPNSPSETRRERAFDANTMTSAEKVLCQFCDQDPAQDAVKTCVTCEVSYCDECLKATHPNKKPFTGHRLIEPIPDSHIRGLMCLEHEDEKVNMYCVTDDQLICALCKLVGRHRDHQVAALSERYDKLKQNLESNLTNLIKRNTELETLLAKLIQTCQHVEVNASRQEAKLTEECDLLIEIIQQRRQIIGTKIKEGKVMRLRKLAQQIANCKQCIERSASLISQAEHSLKENDHARFLQTAKNITERVSMATASSQVLIPEINLNDTFDTFALDFSREKKLLECLDYLTAPNPPTIREELCTASYDTITVHWTSDDEFSVVSYELQYTIFTGQANVVSLCNSADSWMIVPNIKQNHYTVHGLQSGTKYIFMVKAINQAGSRSSEPGKLKTNSQPFKLDPKSAHRKLKVSHDNLTVERDESSSKKSHTPERFTSQGSYGVAGNVFIDSGRHYWEVVISGSTWYAIGLAYKSAPKHEWIGKNSASWALCRCNNNWVVRHNSKEIPIEPAPHLRRVGILLDYDNGSIAFYDALNSIHLYTFDVAFAQPVCPTFTVWNKCLTIITGLPIPDHLDCTEQLP

Variants of: B1
Settings: with UBQLN1, Q9UMX0-2
Chain of UBQLN1, Q9UMX0-2 (Q9UMX0 other isoform, or with tags, fused parts or gaps): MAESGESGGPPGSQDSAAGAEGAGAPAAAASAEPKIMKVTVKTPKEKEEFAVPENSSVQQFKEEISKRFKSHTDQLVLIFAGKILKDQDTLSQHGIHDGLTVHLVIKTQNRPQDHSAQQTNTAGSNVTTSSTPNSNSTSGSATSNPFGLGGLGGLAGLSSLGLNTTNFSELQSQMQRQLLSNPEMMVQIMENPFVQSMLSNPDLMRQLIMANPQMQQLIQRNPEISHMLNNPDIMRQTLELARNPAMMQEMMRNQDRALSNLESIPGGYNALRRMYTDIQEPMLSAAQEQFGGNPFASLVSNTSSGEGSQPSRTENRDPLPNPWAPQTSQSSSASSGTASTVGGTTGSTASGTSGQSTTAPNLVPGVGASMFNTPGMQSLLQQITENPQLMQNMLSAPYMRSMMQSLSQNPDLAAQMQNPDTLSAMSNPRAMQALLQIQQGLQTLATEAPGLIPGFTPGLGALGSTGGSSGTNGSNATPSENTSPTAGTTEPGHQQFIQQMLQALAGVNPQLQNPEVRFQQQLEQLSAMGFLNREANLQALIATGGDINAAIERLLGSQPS

effect of a mutation on the interaction	Variant
with no effect	I92V

Variants of: B1
Settings: with stam2_human STAM2, O75886

effect of a mutation on the interaction	Variant
with no effect	I92V

Variants of: B1
Settings: with reep6_human REEP6, Q96HR9
Chain of reep6_human REEP6, Q96HR9 (Q96HR9 whole entry): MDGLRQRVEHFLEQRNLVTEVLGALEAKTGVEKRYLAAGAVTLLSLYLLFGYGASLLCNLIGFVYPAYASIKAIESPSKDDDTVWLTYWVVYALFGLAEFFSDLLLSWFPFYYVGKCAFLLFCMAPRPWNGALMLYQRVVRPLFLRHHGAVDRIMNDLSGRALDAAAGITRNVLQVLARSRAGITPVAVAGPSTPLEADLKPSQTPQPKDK

effect of a mutation on the interaction	Variant
with no effect	I92V

Variants of: B1
Settings: with hgs_human HGS

effect of a mutation on the interaction	Variant
with no effect	I92V

Variants of: B1
Settings: with OPTN

effect of a mutation on the interaction	Variant
with no effect	I92V

Variants of: B2
Settings: with cep70_human CEP70, Q8NHQ1

effect of a mutation on the interaction	Variant
disrupting interaction strength	R333W

Variants of: B3
Settings: with meox1_human MEOX1, P50221
Chain of meox1_human MEOX1, P50221 (P50221 whole entry): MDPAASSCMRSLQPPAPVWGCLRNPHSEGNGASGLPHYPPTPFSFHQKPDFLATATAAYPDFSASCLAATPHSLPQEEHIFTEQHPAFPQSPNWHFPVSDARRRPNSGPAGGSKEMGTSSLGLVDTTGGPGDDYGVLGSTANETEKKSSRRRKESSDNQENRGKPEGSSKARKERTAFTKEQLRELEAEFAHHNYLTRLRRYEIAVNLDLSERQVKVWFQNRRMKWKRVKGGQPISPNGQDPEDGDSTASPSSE

Variant	effect of a mutation on the interaction
P151L	with no effect
C266R	with no effect

The next lines start with the values.

effect of a mutation on the interaction	Variant
with no effect	L626P
with no effect	K370E
